This series has as its target GST-AP-2alpha (Homo sapiens, UniProt P05549 1-437). The series can be described thus: competition.

GST-AP-2alpha, sequence (P05549 whole entry): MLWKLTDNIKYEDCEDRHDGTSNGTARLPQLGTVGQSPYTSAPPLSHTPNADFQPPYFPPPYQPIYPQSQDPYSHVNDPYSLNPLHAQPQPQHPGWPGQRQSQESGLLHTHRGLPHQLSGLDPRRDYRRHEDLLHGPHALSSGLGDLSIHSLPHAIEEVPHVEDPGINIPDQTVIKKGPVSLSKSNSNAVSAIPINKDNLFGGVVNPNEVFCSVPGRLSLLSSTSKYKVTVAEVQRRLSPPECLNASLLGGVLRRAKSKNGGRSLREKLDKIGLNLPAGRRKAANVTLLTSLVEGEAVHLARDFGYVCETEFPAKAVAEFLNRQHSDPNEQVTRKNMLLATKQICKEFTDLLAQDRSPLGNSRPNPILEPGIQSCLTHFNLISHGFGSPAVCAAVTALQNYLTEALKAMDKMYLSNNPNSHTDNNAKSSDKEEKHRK

B1: O58 (dsDNA)
DNA 1: GATTGTCCCTACACTCGCCTCAGGCGATCATCGGAATACACGATGCTTGG
DNA 2: CCAAGCATCGTGTATTCCGATGATCGCCTGAGGCGAGTGTAGGGACAATC
For B1, the binding result is recorded as “binds”.
